Laboratory results: article PMC4899126

Experiments:
[1] = target: E.r. RT domain (group II intron maturase from Eubacterium rectale M104/1, residues 1-293) (Eubacterium rectale M104/1); assay: SEC-MALS
[2] = target: E.r. RT domain (group II intron maturase from Eubacterium rectale M104/1, residues 1-293) (Eubacterium rectale M104/1); assay: SEC-MALS; remark: listed apart in the source
[3] = target: E.r. RT domain (group II intron maturase from Eubacterium rectale M104/1, residues 1-293) (Eubacterium rectale M104/1); assay: AUC
[4] = target: E.r. RT domain (group II intron maturase from Eubacterium rectale M104/1, residues 1-293) (Eubacterium rectale M104/1); assay: AUC; remark: listed apart in the source

Measured: stoichiometry N

E.r. RT domain (group II intron maturase from Eubacterium rectale M104/1, residues 1-293) (domain or fragment)
2: all assays above
